Experimental data from publication PMC6282620, “Structural and biochemical characterization of Plasmodium falciparum Hsp70‐x reveals functional versatility of its C‐terminal EEVN motif” (Proteins, 2018).

Columns and labels:
[1] = target: PfHsp70‐x C‐terminal truncated version with a missing EEVN motif (Plasmodium falciparum); assay: SPR; PfHsp70‐x or PfHsp70‐xT immobilised on ProteOn GLC chips, peptides as analytes at 1.25-20 nM, 25°C, PBS‐Tween pH 7.4, no nucleotide
[2] = target: Plasmodium falciparum Hsp70‐x (full length) (Plasmodium falciparum); assay: as above
[3] = target: PfHsp70‐x C‐terminal truncated version with a missing EEVN motif (Plasmodium falciparum); assay: SPR; PfHsp70‐x or PfHsp70‐xT immobilised on ProteOn GLC chips, peptides as analytes at 1.25-20 nM, 25°C, PBS‐Tween pH 7.4, with 2 mM ADP
[4] = target: Plasmodium falciparum Hsp70‐x (full length) (Plasmodium falciparum); assay: as above
[5] = target: Plasmodium falciparum Hsp70-x (full length) (Plasmodium falciparum); assay: SPR; PfHsp70-x or PfHsp70-xT immobilised on ProteOn GLC chips as ligands; peptides as analytes at 1.25-20 nM, 50 uL/min; 25 °C; PBS-Tween; no nucleotide
[6] = target: PfHsp70-x C-terminal truncated version with a missing EEVN motif (Plasmodium falciparum); assay: as above
[7] = target: Plasmodium falciparum Hsp70-x (full length) (Plasmodium falciparum); assay: SPR; PfHsp70-x or PfHsp70-xT immobilised on ProteOn GLC chips as ligands; peptides as analytes at 1.25-20 nM, 50 uL/min; 25 °C; PBS-Tween; with 2 mM ATP
[8] = target: Plasmodium falciparum Hsp70-x (full length) (Plasmodium falciparum); assay: SPR; PfHsp70-x or PfHsp70-xT immobilised on ProteOn GLC chips as ligands; peptides as analytes at 1.25-20 nM, 50 uL/min; 25 °C; PBS-Tween; with 2 mM ADP
[9] = target: PfHsp70-x C-terminal truncated version with a missing EEVN motif (Plasmodium falciparum); assay: as above
[10] = target: Plasmodium falciparum Hsp70‐x (full length) (Plasmodium falciparum); assay: SPR; PfHsp70‐x or PfHsp70‐xT immobilised on ProteOn GLC chips, peptides as analytes at 1.25-20 nM, 25°C, PBS‐Tween pH 7.4, with 2 mM ATP
[11] = target: PfHsp70-x C-terminal truncated version with a missing EEVN motif (Plasmodium falciparum); assay: SPR; PfHsp70-x or PfHsp70-xT immobilised on ProteOn GLC chips as ligands; peptides as analytes at 1.25-20 nM, 50 uL/min; 25 °C; PBS-Tween; with 2 mM ATP
[12] = target: PfHsp70‐x C‐terminal truncated version with a missing EEVN motif (Plasmodium falciparum); assay: SPR; PfHsp70‐x or PfHsp70‐xT immobilised on ProteOn GLC chips, peptides as analytes at 1.25-20 nM, 25°C, PBS‐Tween pH 7.4, with 2 mM ATP

B1: peptide ALLLMYRR (peptide)
peptide: ALLLMYRR
Kd [1]: 542000 nM
Kd [2]: 1470 nM
Kd [3]: 313000 nM
Kd [4]: 2820 nM
koff [5]: 1.28e-06 s⁻¹
koff [6]: 1.04e-05 s⁻¹
koff [7]: 1.6e-06 s⁻¹
koff [8]: 0.00282 s⁻¹
koff [9]: 1.04e-05 s⁻¹
Kd [10]: 60600 nM

B2: peptide NRNNTG (peptide)
peptide: NRNNTG
Kd [1]: 7.92 nM
Kd [2]: 6.91 nM
Kd [3]: 1.69 nM
Kd [4]: 4.31 nM
koff [5]: 9.49e-07 s⁻¹
kon [5]: 2.43 M⁻¹ s⁻¹
koff [6]: 2.79e-08 s⁻¹
kon [6]: 3.52 M⁻¹ s⁻¹
koff [7]: 1.01e-06 s⁻¹
kon [7]: 7.33 M⁻¹ s⁻¹
koff [11]: 1.01e-05 s⁻¹
kon [11]: 9.37 M⁻¹ s⁻¹
koff [8]: 1.03e-07 s⁻¹
kon [8]: 2.55 M⁻¹ s⁻¹
koff [9]: 1.01e-08 s⁻¹
kon [9]: 5.96 M⁻¹ s⁻¹
Kd [12]: 107 nM
Kd [10]: 137 nM

B3: peptide ANNNMYRR (peptide)
peptide: ANNNMYRR
Kd [1]: 626000 nM
Kd [2]: 2.21 nM
Kd [3]: 443000 nM
Kd [4]: 2.21 nM
koff [5]: 0.000732 s⁻¹
kon [5]: 331000 M⁻¹ s⁻¹
koff [6]: 1.04e-05 s⁻¹
koff [7]: 0.00567 s⁻¹
kon [7]: 7240 M⁻¹ s⁻¹
koff [8]: 0.00386 s⁻¹
kon [8]: 1.74e+06 M⁻¹ s⁻¹
koff [9]: 1.04e-05 s⁻¹
Kd [10]: 783 nM

B4: peptide NRLLTG (peptide)
peptide: NRLLTG
Kd [1]: 280 nM
Kd [2]: 250 nM
Kd [3]: 170 nM
Kd [4]: 620 nM
koff [5]: 9.97e-06 s⁻¹
kon [5]: 3.86 M⁻¹ s⁻¹
koff [6]: 8.67e-06 s⁻¹
kon [6]: 3.15 M⁻¹ s⁻¹
koff [7]: 1.01e-05 s⁻¹
kon [7]: 1.21 M⁻¹ s⁻¹
koff [11]: 0.000161 s⁻¹
kon [11]: 31.8 M⁻¹ s⁻¹
koff [8]: 1.01e-05 s⁻¹
kon [8]: 1.62 M⁻¹ s⁻¹
koff [9]: 1e-05 s⁻¹
kon [9]: 6 M⁻¹ s⁻¹
Kd [12]: 1800 nM
Kd [10]: 1700 nM
